Data from the PETadex activity labels (doi:10.1016/j.ijbiomac.2025.149745).

Assays:
PEF [1] = assay: Proxy for plastic degradation [kcat] (s⁻¹); settings: pH 9
PET [2] = assay: Proxy for plastic degradation [kcat] (s⁻¹); settings: pH 9
[3] = Proxy for plastic degradation [melting temperature]; settings: pH 7
pNPB [4] = assay: Proxy for plastic degradation [kcat/Km (catalytic efficiency)] (mM⁻¹s⁻¹); settings: pH 7
pNPB [5] = assay: Proxy for plastic degradation [PET preference ratio] (% relative activity); settings: pH 7
PEF [6] = assay: Proxy for plastic degradation [Released monomer concentration (HPLC/LC-MS) (FDCA + MHEF)] (s⁻¹); settings: pH 9
PET [7] = assay: Proxy for plastic degradation [Released monomer concentration (HPLC/LC-MS) (TPA+MHET+BHET)] (s⁻¹); settings: pH 9

Protein	Proxy for plastic degradation (PEF [1])	Proxy for plastic degradation (PET [2])	Proxy for plastic degradation [3] [°C]	Proxy for plastic degradation (pNPB [4])	Proxy for plastic degradation (pNPB [5])	Proxy for plastic degradation (PEF [6])	Proxy for plastic degradation (PET [7])	Proxy for plastic degradation (PEF [1]; part of the chain shown)	Proxy for plastic degradation (PET [2]; part of the chain shown)	Proxy for plastic degradation (pNPB [4]; part of the chain shown)	Proxy for plastic degradation (PEF [6]; part of the chain shown)	Proxy for plastic degradation (PET [7]; part of the chain shown)	Proxy for plastic degradation ([3]; part of the chain shown) [°C]
unnamed (protein) MDGVLWRVRTAALMAALLALAAWALWASPSVEAQSNPYQRGPNPTRSALTADGPFSVATYTVSRLSVSGFGGVIYYPTGTSLTFGGIAMSPGYTADASSLAWLGRRLASHGFVVLVINTNSRFDYPDSRASQLSAALNYLRTSSPSAVRARLDANRLAVAGHSMGGGGTLRIAEQNPSLKAAVPLTPWHTDKTFNTSVPVLIVGCEADTVAPVSQHAIPFYQNLPSTTPKVYVELDNASHFCPNSNNAAISVYTISWMKLWVDNDTRYRQFLCNVNDPALSDFRTNNRHCQCQ	0.004	0.0031	82	335									
unnamed (protein) MDGVLWRVRTAALMAALLALAAWALWASPSVEAQSNPYQRGPNPTRSALTADGPFSVATYTVSRLSVSGFGGVIYYPTGTSLTFGGIAMSPGYTADASSLAWLGRRLASHGFVVLVINTNSRFDYPDSRASQLSAALNYLRTSSPSAVRARLDANRLAVAGWSMGGGGTLRIAEQNPSLKAAVPLTPWHTDKTFNTSVPVLIVGAEADTVAPVSQHAIPFYQNLPSTTPKVYVELDNASHFAPNSNNAAISVYTISWMKLWVDNDTRYRQFLCNVNDPALSDFRTNNRHCQCQ	0.033	0.003	84.9	67									
unnamed (protein) MDGVLWRVRTAALMAALLALAAWALWASPSVEAQSNPYQRGPNPTRSALTADGPFSVATYTVSRLSVSGFGGVIYYPTGTSLTFGGIAMSPGYTADASSLAWLGRRLASHGFVVLVINTNSRFDYPDSRASQLSAALNYLRTSSPSAVRARLDANRLAVAGHSMGGGGTLRIAEQNPSLKAAVPLTPWHTDKTFNTSVPVLIVGAEADTVAPVSQHAIPFYQNLPSTTPKVYVELDNASHSAPNSNNAAISVYTISWMKLWVDNDTRYRQFLCNVNDPALSDFRTNNRHCQCQ	0.085	0.035	85	175									
unnamed (protein) MDGVLWRVRTAALMAALLALAAWALWASPSVEAQSNPYQRGPNPTRSALTADGPFSVATYTVSRLSVSGFGGVIYYPTGTSLTFGGIAMSPGYTADASSLAWLGRRLASHGFVVLVINTNSRFDYPDSRASQLSAALNYLRTSSPSAVRARLDANRLAVAGHSMGGGGTLRIAEQNPSLKAAVPLTPWHTDKTFNTSVPVLIVGAEADTVAPVSQHAIPFYQNLPSTTPKVYVELDNASHFAPNSNNAAISVYTISWMKLWVDNDTRYRQFLCNVNDPALSDFRTNNRHCQCQ	0.005	0.01	85	398									
unnamed (protein) MDGVLWRVRTAALMAALLALAAWALWASPSVEAQSNPYQRGPNPTRSALTADGPFSVATYTVSRLSVSGFGGVIYYPTGTSLTFGGIAMSPGYTADASSLAWLGRRLASHGFVVLVINTNSRFDYPDSRASQLSAALNYLRTSSPSAVRARLDANRLAVAGWSMGGGGTLRIAEQNPSLKAAVPLTPWHTDKTFNTSVPVLIVGCEADTVAPVSQHAIPFYQNLPSTTPKVYVELDNASHSCPNSNNAAISVYTISWMKLWVDNDTRYRQFLCNVNDPALSDFRTNNRHCQCQ	0.006	0.0045	82.5	2.8									
unnamed (protein) MDGVLWRVRTAALMAALLALAAWALWASPSVEAQSNPYQRGPNPTRSALTADGPFSVATYTVSRLSVSGFGGVIYYPTGTSLTFGGIAMSPGYTADASSLAWLGRRLASHGFVVLVINTNSRFDYPDSRASQLSAALNYLRTSSPSAVRARLDANRLAVAGWSMGGGGTLRIAEQNPSLKAAVPLTPWHTDKTFNTSVPVLIVGAEADTVAPVSQHAIPFYQNLPSTTPKVYVELDNASHSAPNSNNAAISVYTISWMKLWVDNDTRYRQFLCNVNDPALSDFRTNNRHCQCQ	0.0175	0.018	84.5	28									
unnamed (protein) MDGVLWRVRTAALMAALLALAAWALWASPSVEAQSNPYQRGPNPTRSALTADGPFSVATYTVSRLSVSGFGGVIYYPTGTSLTFGGIAMSPGYTADASSLAWLGRRLASHGFVVLVINTNSRFDYPDSRASQLSAALNYLRTSSPSAVRARLDANRLAVAGHSMGGGGTLRIAEQNPSLKAAVPLTPWHTDKTFNTSVPVLIVGCEADTVAPVSQHAIPFYQNLPSTTPKVYVELDNASHSCPNSNNAAISVYTISWMKLWVDNDTRYRQFLCNVNDPALSDFRTNNRHCQCQ	0.115	0.03	83	125	0								
unnamed (protein) MNFPRASRLMQAAVLGGLMAVSAAATAQTNPYARGPNPTAASLEASAGPFTVRSFTVSRPSGYGAGTVYYPTNAGGTVGAIAIVPGYTARQSSIKWWGPRLASHGFVVITIDTNSTLDQPSSRSSQQMAALRQVASLNGTSSSPIYGKVDTARMGVMGHSMGGGGSLISAANNPSLKAAAPQAPWDSSTNFSSVTVPTLIFAAENDSIAPVNSSALPIYDSMSRNAKQFLEINGGSHFAANSGNSNQALIGKKGVAWMKRFMDNDTRYSTFACENPNSTRVSDFRTANCS	0	0	39.5	2.1	0	0	0						
unnamed (protein) MNFPRASRLMQAAVLGGLMAVSAAATAQTNPYARGPNPTAASLEASAGPFTVRSFTVSRPSGYGAGTVYYPTNAGGTVGAIAIVPGYTARQSSIKWWGPRLASHGFVVITIDTNSTLDQPSSRSSQQMAALRQVASLNGTSSSPIYGKVDTARMGVMGHSMGGGGSLISAANNPSLKAAAPQAPWDSSTNFSSVTVPTLIFACENDSIAPVNSSALPIYDSMSRNAKQFLEINGGSHSCANSGNSNQALIGKKGVAWMKRFMDNDTRYSTFACENPNSTRVSDFRTANCS	0.17	0.03	48	45.8		0.2	0.03						
unnamed (protein) MNFPRASRLMQAAVLGGLMAVSAAATAQTNPYARGPNPTAASLEASAGPFTVRSFTVSRPSGYGAGTVYYPTNAGGTVGAIAIVPGYTARQSSIKWWGPRLASHGFVVITIDTNSTLDQPSSRSSQQMAALRQVASLNGTSSSPIYGKVDTARMGVMGWSMGGGGSLISAANNPSLKAAAPQAPWDSSTNFSSVTVPTLIFACENDSIAPVNSSALPIYDSMSRNAKQFLEINGGSHSCANSGNSNQALIGKKGVAWMKRFMDNDTRYSTFACENPNSTRVSDFRTANCS								1.02	0.09	8.7	1	0.075	
unnamed (protein) MNFPRASRLMQAAVLGGLMAVSAAATAQTNPYARGPNPTAASLEASAGPFTVRSFTVSRPSGYGAGTVYYPTNAGGTVGAIAIVPGYTARQSSIKWWGPRLASHGFVVITIDTNSTLDQPSSRSSQQMAALRQVASLNGTSSSPIYGKVDTARMGVMGWSMGGGGSLISAANNPSLKAAAPQAPWDSSTNFSSVTVPTLIFAAENDSIAPVNSSALPIYDSMSRNAKQFLEINGGSHSAANSGNSNQALIGKKGVAWMKRFMDNDTRYSTFACENPNSTRVSDFRTANCS	0	0	40.4	0	0	0	0						
unnamed (protein) MNFPRASRLMQAAVLGGLMAVSAAATAQTNPYARGPNPTAASLEASAGPFTVRSFTVSRPSGYGAGTVYYPTNAGGTVGAIAIVPGYTARQSSIKWWGPRLASHGFVVITIDTNSTLDQPSSRSSQQMAALRQVASLNGTSSSPIYGKVDTARMGVMGHSMGGGGSLISAANNPSLKAAAPQAPWDSSTNFSSVTVPTLIFACENDSIAPVNSSALPIYDSMSRNAKQFLEINGGSHFCANSGNSNQALIGKKGVAWMKRFMDNDTRYSTFACENPNSTRVSDFRTANCS								0.08	0.013	22.8	0.11	0.012	47.9
unnamed (protein) MNFPRASRLMQAAVLGGLMAVSAAATAQTNPYARGPNPTAASLEASAGPFTVRSFTVSRPSGYGAGTVYYPTNAGGTVGAIAIVPGYTARQSSIKWWGPRLASHGFVVITIDTNSTLDQPSSRSSQQMAALRQVASLNGTSSSPIYGKVDTARMGVMGWSMGGGGSLISAANNPSLKAAAPQAPWDSSTNFSSVTVPTLIFACENDSIAPVNSSALPIYDSMSRNAKQFLEINGGSHFCANSGNSNQALIGKKGVAWMKRFMDNDTRYSTFACENPNSTRVSDFRTANCS	0.35	0.035	48.5	3.3		0.35	0.037						
